Test [1] deals with T1, murine SIRT3 recombinant protein (mouse).
T1 sequence (Q8R104 whole entry, looked up): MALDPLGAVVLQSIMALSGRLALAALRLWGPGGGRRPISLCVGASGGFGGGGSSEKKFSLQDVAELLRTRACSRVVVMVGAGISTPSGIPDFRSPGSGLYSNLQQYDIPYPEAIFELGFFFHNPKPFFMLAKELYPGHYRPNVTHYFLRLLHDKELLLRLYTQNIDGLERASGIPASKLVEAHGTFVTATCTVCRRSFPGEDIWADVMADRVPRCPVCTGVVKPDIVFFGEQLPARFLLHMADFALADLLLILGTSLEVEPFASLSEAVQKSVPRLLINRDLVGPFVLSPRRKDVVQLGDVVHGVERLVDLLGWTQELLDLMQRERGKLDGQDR
The test can be described thus: ITC; Nano ITC (TA Instruments); ATP5O titrated into a SIRT3-containing solution at 25 °C; NanoAnalyze. In general terms: In ITC the heat of successive injections is recorded.

Test [2] shares this target. Description: SPR; SIRT3 immobilised on a carboxyl sensor chip; ATP5O diluted in running buffer and injected from low to high concentrations; kinetics analysed with Trace Drawer. On the technique in general: SPR reads the build-up and loss of mass on a sensor chip optically.

B1: murine ATP5O recombinant protein (natural protein)
chain: FAKLVRPPVQVYGIEGRYATALYSAASKEKKLDQVEKELLRVGQLLKDPKVSLAVLNPYIKRTVKVKSLNDITKREKFSPLTANLMNLLAENGRLGNTQGIISAFSTIMSVHRGEVPCTVTTASPLDDAVLSELKTVLKSFLSPNQILKLEIKTDPSIMGGMIVRIGEKYVDMSAKSKIQKLSKAMREML
In general, Kd refers to the equilibrium constant for the complex coming apart. Broadly, the koff is the rate constant with which the complex falls apart. In general, kon refers to a measure of how fast the partners come together. Regarding B1, the Kd in test [1] was determined as 1310 nM. Moreover, in test [2], the Kd was found to be 0.0653 nM, the koff turned out to be 5.54e-08 s⁻¹ and the kon was found to be 850 M⁻¹ s⁻¹.
